{
  "source": "patent US20240182988",
  "target": "TtCsm complex (Thermus thermophilus) (UniProt Q53W19+Q53WF6+Q53WF5+Q53WF4+Q53W18)",
  "test": "cleavage_in_vitro",
  "data": [
    {"substance": "crRNA targeting SARS-CoV-2 N gene (N1) ; SARS-CoV-2 N1 target RNA", "values": [
      {"measurement": "activity", "result": "> 95", "unit": "% cleaved"}
    ]}
  ]
}
